Here are results for 2 molecules from patent publication US20220127355A1 (INTEGRAL MOLECULAR, published 2022).

The target in one assay is T1, Claudin 6 (human) (human, UniProt P56747 1-220).
T1 construct: Expressed on transfected HEK-293T cells or naturally on PA-1 cells for flow cytometry; For the Octet KD values it was the intact protein embedded in virus-like particles (lipoparticles); also called hsCLDN6; CLDN6
T1 chain: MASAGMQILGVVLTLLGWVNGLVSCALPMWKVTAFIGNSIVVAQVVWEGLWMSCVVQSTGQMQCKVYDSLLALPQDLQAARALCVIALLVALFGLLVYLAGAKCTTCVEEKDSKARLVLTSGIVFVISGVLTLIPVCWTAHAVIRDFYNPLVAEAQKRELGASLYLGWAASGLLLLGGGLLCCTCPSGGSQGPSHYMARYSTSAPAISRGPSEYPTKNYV
Kind of assay: biosensor (Forte Octet), intact claudin in virus-like particles (lipoparticles). How it is done: Affinity of various antibodies against CLDN6 as compared to CLDN9, CLDN3, and CLDN4 was measured using a biosensor. Biosensor affinity measurement of the various antibodies against the proteins was determined using a Forte Octet, which was used for biosensor measurements, using intact claudin proteins embedded in virus-like particles (lipoparticles). The KD for different antibodies is shown below.

For the next assay, the target named is T2, D146A.
T2 construct: Shotgun Mutagenesis mutant; also called Claudin 6 D146A
T2 chain: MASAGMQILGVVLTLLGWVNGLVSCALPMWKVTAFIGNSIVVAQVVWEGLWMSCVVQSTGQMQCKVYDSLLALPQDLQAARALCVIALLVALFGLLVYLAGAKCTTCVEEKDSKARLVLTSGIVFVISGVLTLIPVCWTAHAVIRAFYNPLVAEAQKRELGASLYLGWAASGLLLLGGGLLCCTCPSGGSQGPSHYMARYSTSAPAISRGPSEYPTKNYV
Kind of assay: Shotgun Mutagenesis epitope mapping; mean (range), % of wild-type Claudin 6.

For the next assay, the target named is T3, Q156A.
T3 construct: Shotgun Mutagenesis mutant; also called Claudin 6 Q156A
T3 chain: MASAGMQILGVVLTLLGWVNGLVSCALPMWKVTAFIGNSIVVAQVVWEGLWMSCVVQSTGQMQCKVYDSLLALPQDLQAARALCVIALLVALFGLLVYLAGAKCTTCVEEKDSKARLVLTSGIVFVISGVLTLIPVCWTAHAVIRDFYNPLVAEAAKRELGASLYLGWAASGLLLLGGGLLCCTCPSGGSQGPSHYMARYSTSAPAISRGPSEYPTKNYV
The description is as above.

In another assay the target is T4, Q156L.
T4 construct: Shotgun Mutagenesis mutant; also called Claudin 6 Q156L
T4 chain: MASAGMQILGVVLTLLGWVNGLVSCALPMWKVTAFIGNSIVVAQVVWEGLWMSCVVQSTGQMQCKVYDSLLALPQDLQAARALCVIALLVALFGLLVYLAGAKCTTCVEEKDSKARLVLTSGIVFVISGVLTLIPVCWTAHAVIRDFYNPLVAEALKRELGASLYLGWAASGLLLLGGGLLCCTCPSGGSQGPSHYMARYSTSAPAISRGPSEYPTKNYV
The assay is described as above.

Another assay concerns the target T5, R158A.
T5 construct: Shotgun Mutagenesis mutant; also called Claudin 6 R158A
T5 chain: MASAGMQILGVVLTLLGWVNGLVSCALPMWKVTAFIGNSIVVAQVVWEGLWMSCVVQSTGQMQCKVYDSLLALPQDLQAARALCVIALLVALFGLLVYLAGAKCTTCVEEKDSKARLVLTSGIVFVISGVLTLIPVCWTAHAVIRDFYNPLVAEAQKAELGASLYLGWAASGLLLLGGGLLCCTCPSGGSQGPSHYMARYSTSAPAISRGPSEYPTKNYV
The description is as above.

The next assay concerns the target T6, T33A.
T6 construct: Shotgun Mutagenesis mutant; also called Claudin 6 T33A
T6 chain: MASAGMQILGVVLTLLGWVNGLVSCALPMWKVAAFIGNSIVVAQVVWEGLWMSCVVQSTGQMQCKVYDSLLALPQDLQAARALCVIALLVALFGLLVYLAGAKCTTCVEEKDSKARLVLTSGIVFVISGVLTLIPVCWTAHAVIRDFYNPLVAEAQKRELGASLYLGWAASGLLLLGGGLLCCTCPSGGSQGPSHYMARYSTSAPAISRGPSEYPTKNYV
The assay is described as above.

A further assay deals with T7, Y67A.
T7 construct: Shotgun Mutagenesis mutant; also called Claudin 6 Y67A
T7 chain: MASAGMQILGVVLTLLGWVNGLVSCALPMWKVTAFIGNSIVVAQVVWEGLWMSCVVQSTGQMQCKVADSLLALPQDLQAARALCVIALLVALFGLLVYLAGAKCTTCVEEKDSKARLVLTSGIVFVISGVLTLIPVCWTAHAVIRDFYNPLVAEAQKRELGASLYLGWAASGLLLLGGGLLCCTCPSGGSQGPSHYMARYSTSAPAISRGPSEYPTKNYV
Described as above.

The next assay addresses T8, Claudin 3 (UniProt O15551 1-220).
T8 construct: also called CLDN3
T8 sequence (looked up): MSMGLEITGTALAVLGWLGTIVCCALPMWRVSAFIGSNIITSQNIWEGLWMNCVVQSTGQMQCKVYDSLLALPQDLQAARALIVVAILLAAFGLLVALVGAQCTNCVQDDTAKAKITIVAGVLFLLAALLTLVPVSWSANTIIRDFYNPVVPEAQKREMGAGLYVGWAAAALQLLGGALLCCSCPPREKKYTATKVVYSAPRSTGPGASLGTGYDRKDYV
Kind of assay: flow cytometry, HEK-293T cells transiently transfected with the indicated claudin; pUC19 = empty vector control. How it is done:
FIG. 2 illustrates the results of a binding assay showing that Claudin 6 MAbs bind to human Claudin 6 preferentially over other Claudin proteins. Human embryonic kidney 293T (HEK-293T) cells were transiently transfected with DNA for the indicated Claudin protein or empty vector along with GFP (pUC) for 22 hours.
Background: Flow cytometry measures light scatter and fluorescence of single cells or particles in a stream.

As a reminder, the Kd is the free concentration of one partner at which half of the binding sites on the other are occupied at equilibrium, for simple one-to-one binding. Low readings indicate tighter binding, high ones weaker binding.

B1: IM171 (antibody, V domains shown)
VH: AVTLDESGGGLQTPGGALSLVCKASGFDFSSYAMNWVRQAPGKGLEWVAGIGSTGSSTGYGPAVKGRATISRDNGQSTLRLQLNNLRAEDTAIYYCAKSVGNGNSWSGYIATSIDAWGHGTEVIVSS
VL: ALTQPSSVSANLGGTVKLTCSGGSSGYGWYQQKSPGSAPVTVIYSNDKRPSDIPSRFSGSLSGSTGTLTITGVQADDEAVYFCGSTDNSYVGIFGAGTTLTVL
notes: Detected with anti-human IgG Fc secondary; also called LM171
In the assay with Claudin 6 (human), B1 registered a Kd of 3 nM. The “Binding Reactivity (% WT)” value in the assay with D146A came to 57.6 % WT; in the assay with Q156A, 102 % WT; with Q156L it was 10 % WT; with R158A, 1.3 % WT; with T33A, 22.8 % WT; with Y67A, 97.2 % WT. Further, the binding result in the assay with Claudin 3 was “no binding (tested: log [mAb] about -7.2 M)”.

B2: IM173 (antibody, V domains shown)
VH: AVTLDESGGGLQTPGGALSLVCKASGFTFSSYSMFWVRRAPGKGLEWVAGIDSGSTTFYGSAVKGRATISRDNGQSTVRLQLNNLRAEDTATYYCAKDAYGYCGWSGCSADSIDAWGHGTEVIVSS
VL: ALTQPSSVSANPGGTVEITCSGGNNYYGWYQQKSPGSAPVTVIYYNDKRPSDIPSRFSGSKSGSTGTLTITGVQADDEAVYFCGGWDSSGGIFGAGTTLTVL
notes: Detected with anti-human IgG Fc secondary
Turning to B2, in the assay with Claudin 6 (human), the equilibrium dissociation constant (Kd) turned out to be 0.32 nM. Moreover, the “Binding Reactivity (% WT)” value was determined as 119 % WT with D146A; 0.9 % WT with Q156A; 10.7 % WT in the assay with Q156L; 3.6 % WT with R158A; 116 % WT with T33A; 28.8 % WT with Y67A. For the same molecule, the binding result with Claudin 3 was “no binding (tested: log [mAb] about -7.2 M)”.
